From patent publication US20140363422A1 (IMMUNOQURE, published 2014)
Where two headings read alike, the source gives them in different places.

Legend:
[1] = target: T1, IL-17A/IL-17F heterodimer (UniProt Q16552 24-155; Q96PD4 31-163); experiment: cell-based or functional assay
T1 sequence (looked up) 1: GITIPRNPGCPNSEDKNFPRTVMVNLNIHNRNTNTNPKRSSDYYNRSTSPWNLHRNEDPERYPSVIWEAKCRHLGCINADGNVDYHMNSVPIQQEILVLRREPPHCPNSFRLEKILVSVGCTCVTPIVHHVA
T1 sequence (looked up) 2: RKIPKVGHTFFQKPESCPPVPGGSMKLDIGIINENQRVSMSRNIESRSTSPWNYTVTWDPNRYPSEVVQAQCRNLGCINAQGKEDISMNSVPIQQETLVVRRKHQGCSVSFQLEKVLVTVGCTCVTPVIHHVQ

human IL-17F [2] = target: T2, human IL-17F (human, UniProt Q96PD4 31-163); experiment: cell-based or functional assay
T2 sequence (looked up): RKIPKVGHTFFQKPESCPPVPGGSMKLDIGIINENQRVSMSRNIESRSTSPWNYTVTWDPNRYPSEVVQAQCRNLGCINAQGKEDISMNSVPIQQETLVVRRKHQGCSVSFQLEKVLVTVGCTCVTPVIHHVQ

human IL-17F [3] = target: T2, human IL-17F; experiment: SPR (ProteOn XPR36), antibody captured by anti-human IgG, IL-17F injected
human IL-17A = target: T3, human IL-17A (human, UniProt Q16552 24-155); experiment: EC50 in summary table; assay not named, taken as binding ELISA; IL-17A (A)
T3 construct: Bought recombinant protein; also called CTLA-8
T3 sequence (looked up): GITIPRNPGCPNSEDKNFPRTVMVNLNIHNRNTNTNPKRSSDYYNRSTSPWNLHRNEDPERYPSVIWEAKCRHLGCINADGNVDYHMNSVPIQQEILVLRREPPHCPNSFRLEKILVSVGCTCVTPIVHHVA

human IL-17F [4] = target: T2, human IL-17F; experiment: EC50 in summary table; assay not named, taken as binding ELISA; IL-17F (F)
human IL-22 [5] = target: T4, human IL-22 (human, UniProt Q9GZX6 34-179); experiment: SPR (ProteOn XPR36), antibody captured by anti-human IgG (L3), IL-22 injected at 100 to 1.23 nM and buffer
T4 construct: also called IL-22(h); interleukin-22
T4 sequence (looked up): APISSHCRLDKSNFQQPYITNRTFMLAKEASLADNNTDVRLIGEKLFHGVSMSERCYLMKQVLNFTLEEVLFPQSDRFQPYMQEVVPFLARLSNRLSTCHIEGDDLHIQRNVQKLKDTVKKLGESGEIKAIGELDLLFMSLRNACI

human IL-22 [6] = target: T4, human IL-22; experiment: EC50 in summary table; assay not named, taken as binding ELISA; human IL-22 (h)
mouse IL-22 = target: T5, mouse IL-22 (mouse, UniProt Q9JJY9 34-179); experiment: EC50 in summary table; assay not named, taken as binding ELISA; murine IL-22 (m)
T5 construct: also called murine IL-22; IL-22(m)
T5 sequence (looked up): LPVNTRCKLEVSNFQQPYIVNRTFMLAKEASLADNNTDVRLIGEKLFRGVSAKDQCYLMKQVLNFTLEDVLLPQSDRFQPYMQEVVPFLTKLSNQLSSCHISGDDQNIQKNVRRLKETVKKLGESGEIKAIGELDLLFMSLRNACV

human IL-22 [7] = target: T4, human IL-22; experiment: SPR (ProteOn XPR36), antibody captured by anti-human IgG, IL-22 injected at 100 to 1.23 nM, 1:1 Langmuir fit, grouped
Procedure: (§1) Data was referenced using the interspot regions of the sensor chip.
(§2) For affinity determination of the antibodies of the present invention SPR measurements were performed using a ProteOn™ XPR36 instrument, according to the instructions of the manufacturer (BIO-RAD; Hercules Calif., USA). First, anti-human IgG was coupled simultaneously on 5 surfaces of the 6×6 interaction array of a GLC sensor chip by EDC/NHS chemistry, no antibody was sixth immobilized on the sixth surface, but the surface was treated with the same activation and deactivation protocol as the other five surfaces. The MABs (ligands) to be tested were injected afterwards into 6 channels of the chip (in the vertical direction) and simultaneously captured at very similar capture efficiency and percentage activity. […] Data was referenced using the interspot regions between the flow channels. […] Binding experiments were repeated twice and data is represented as a mean of two independent experiments.

human IL-22 [8] = target: T4, human IL-22; experiment: SPR (ProteOn XPR36), antibody captured by anti-human IgG, IL-22 injected at 100 to 1.23 nM, 1:1 Langmuir fit, mean of two experiments
Procedure: as §1, §2

human IL-17F [9] = target: T2, human IL-17F; experiment: EC50 in summary table; assay not named, taken as binding ELISA
human IL-22 [10] = target: T4, human IL-22; experiment: SPR (ProteOn XPR36), antibody captured by anti-human IgG (L1), IL-22 injected at 100 to 1.23 nM and buffer
human IL-17F [11] = target: T2, human IL-17F; experiment: ELISA, titration of antibody 9A2 on recombinant human IL17F
human IL-22 [12] = target: T4, human IL-22; experiment: SPR (ProteOn XPR36), antibody captured by anti-human IgG (L2), IL-22 injected at 100 to 1.23 nM and buffer
human IL-22 [13] = target: T4, human IL-22; experiment: EC50 in summary table; assay not named, taken as binding ELISA
human IL-22 [14] = target: T4, human IL-22; experiment: SPR (ProteOn XPR36), antibody captured by anti-human IgG, IL-22 injected at 100 to 1.23 nM, 1:1 Langmuir fit, grouped; remark: listed apart in the source
Procedure: as §1, §2

human IL-22 [15] = target: T4, human IL-22; experiment: cell-based or functional assay

B1: IL-17F and IL-17A specific antibody 17E3 (antibody, human IgG1, kappa, V domains shown)
VH: QVQLVQSGAEVAKPGASVRLSCKASGFSFIKYYMHWVRQAPGQGLEWMGVIEPTGGGTSSAQKFRDRVTLSRDTSTATVHLEVSRLTLEDTGIYFCVRDSIYCKHGTCHRTVIDAFDIWGQGTAVTVSS
VL: DIQMTQSPSSLSASVGDRVTITCRSSQDIKNDLAWYQQKPGKAPERLIYAASNLQSGVPSRFSGSGSGTEFSLTISGLQPEDFATYYCLQHNSYPLLTFGGGTKVEIKR
notes: also called a-IL17-17E3
In the case of B1, the “IC50 Neutralization (ng/ml); GRO-alpha production by NCTC 2544 keratinocytes” value (“IC50 Neutralization … by NCTC 2544 keratinocytes” for short) [1] is reported as 12 ng/mL, the “IC50 Neutralization … by NCTC 2544 keratinocytes” value (human IL-17F [2]) is reported as 15 ng/mL and the kon (human IL-17F [3]) is reported as about 300000 M⁻¹ s⁻¹. The EC50 (human IL-17A) was 0.824 µg/mL, the EC50 (human IL-17F [4]) was 0.002 µg/mL and the binding result (human IL-22 [5]) was “no binding (tested: 100 nM)”.

B2: IL-22 specific antibody 30G1 (antibody, human IgG1, kappa, V domains shown)
VH: EVQLLESGGGLVQPGGSLRLSCAASGFTFSTYAMSWVRQAPGKGLEWVSTITSSGGATYHADSVKGRLTISRDNSKNTLYLEMNSLRVEDTAVYYCAKDWGRTVYAVIKDLDIWGQGTLVTVSS
VL: EIVMTQSPAILSVSPGERATLSCRASQSVSNYLAWFQQKPGQAPRLLIYDTSKRATGTPARFSGSGSGTDFTLTISSLEPEDFAVYFCQQRSDWPQYTFGQGTKLEIKR
notes: also called aIL-22 30G1
In the case of B2, the binding result (human IL-17F [3]) is reported as “no binding (tested: 100 nM to 1.23 nM)”, the EC50 (human IL-22 [6]) is reported as 0.003 µg/mL and the EC50 (mouse IL-22) is reported as 0.015 µg/mL. It also gave a Kd (human IL-22 [7]) of 0.0352 nM, a koff (human IL-22 [7]) of 1.55e-05 s⁻¹ and a kon (human IL-22 [7]) of 441000 M⁻¹ s⁻¹. The Kd (human IL-22 [8]) was 0.0365 nM.

B3: IL-17F specific antibody 24D3 (antibody, human IgG1, lambda, V domains shown)
VH: EVKLEESGGDLVKPGGSLRLSCVASGFTFGTAWMSWVRQAPGKGLEWVGRISNKDTGGRIDYAAPVRGRFAISRDDSKATLFLQMNSLKTEDTAVYFCTTNFYDVLTGDHVDYWGQGTVVVVSS
VL: SYELTQPPSVSVSPGETARIPCSGETLPKKLVYWYQQKPGQAPVLMIYKDSERPSRISERFSGSNSGTMASLTISGVQAEDEADYYCQTSDSSGVVFGGGTKLTVLG
notes: also called a-IL17-24D3; aIL-17 24D3
B3 was tested, and the “IC50 Neutralization … by NCTC 2544 keratinocytes” value [1] was 6 to 14 ng/mL, the “IC50 Neutralization … by NCTC 2544 keratinocytes” value (human IL-17F [2]) was 12 to 22 ng/mL and the EC50 (human IL-17F [9]) was 0.002 µg/mL. The kon (human IL-17F [3]) was about 600000 M⁻¹ s⁻¹ and the binding result (human IL-22 [10]) was “no binding (tested: 100 nM)”.

B4: IL-17F specific antibody 9A2 (antibody, human IgG1, kappa, V domains shown)
VH: EVQLEESGGGLVQPGGSLRLSCAASGFPFSNYEMNWVRQAPGKGLEWISYISVSGGPAHYADSVKGRFTISRDDATKSLFLQMNRLRADDTAVYYCVRREYVTGRNYNYYPYMDVWGTGTTVTVSP
VL: DIQMTQSPSSLSASVGDRVTITCRASQTISDYLNWYQHKPGEAPKLLIYSASTLQRGVPSRFSGSGSGTDFVFTISSLQSDDFATYYCQQTSSTALTFGGGTKVEVKR
notes: also called a-IL17-9A2
With B4 the “IC50 Neutralization … by NCTC 2544 keratinocytes” value (human IL-17F [2]) was 45 ng/mL, the EC50 (human IL-17F [9]) was 0.003 µg/mL and the “EC50 (read off the curve)” value (human IL-17F [11]) was about 0.02 µg/mL. The kon (human IL-17F [3]) was about 800000 M⁻¹ s⁻¹ and the binding result (human IL-22 [12]) was “no binding (tested: 100 nM)”.

B5: IL-22 specific antibody 51G4 (antibody, human IgG2, lambda, V domains shown)
VH: EVQLVQSGAEVKKPGASVKVSCKTSGYKFALYDIHWVRQAPGQGLEWMGWINAANGDTEYSQKFEGRVTITRDTSATTVYMELNSLTYGDTAVYYCAREEGLYNWFDPWGQGTLVTVSS
VL: SYELTQDPAVSVALGQTVRITCQGDSLRIYYANWYQQKPGQAPVLVIYGKSNRPSGIPDRFSASSSGNTASLTITGAQAEDEADYYCNSRDSSDKHPVPFGGGTKLTVLS
notes: also called a-IL-22-51G4
Work on B5 yielded an EC50 (human IL-22 [13]) of 0.067 to 0.148 µg/mL.

B6: IL-22 specific antibody 35G11 (antibody, human IgG4, lambda, V domains shown)
VH: QVQLVQSGSELRRPGASVNISCKASGYGFNTYAMNWVRQAPGQGPEWMGWINTDTGDPTYAQGFTGRFAFFLDTSASTAFLQITRLTGEDTAVYFCARTRNNWNGVYYHYSGLDVWGQGTTVTVSS
VL: QSVLTQPPSASGTPGQTVTISCSGSSPNLGDNYVYWYHQVPGTAPKLLIFRNTQRPSGVTDRFSGSKYGTSASLAISDLRSDDEGDFYCASWDDRLSRLVFGGGTKLTVLG
notes: also called a-IL-22-35G11; aIL-22 35G11
For B6, the EC50 (human IL-22 [13]) was 0.007 µg/mL, the binding result (human IL-17F [3]) was “no binding (tested: 100 nM to 1.23 nM)” and the Kd (human IL-22 [14]) was 0.0457 nM. The koff (human IL-22 [14]) was 8.09e-05 s⁻¹, the kon (human IL-22 [14]) was 1.77e+06 M⁻¹ s⁻¹ and the Kd (human IL-22 [8]) was 0.039 nM.

B7: IL-22 specific antibody 41D11 (antibody, human IgG1, lambda, V domains shown)
VH: QVQLHESGPGLVKPSETLSVTCSLSGGSISSSSHLWAWIRQPPEKGLEYIGRIHYRGSVSYNPSLKSRAAISVDTAKNQFSLTLSAVTAADTSFYYCARLDMGAIDKWGQGTLVIVSS
V domain: QPVLTQSPSASASLGASIKLTCTLSSGHSNYDIAWHQQQSGKGPRFLMRVNNGGSHNKGDGIPDRFSGSSSGAERYLTISSLQSEDEADYYCQTWGTGTHVFGTG
notes: also called a-IL-22-41D11
With B7 the “IC50 Neutralization (ng/ml); IL-10 production by Colo205 cells” value (human IL-22 [15]) was 38 ng/mL, the EC50 (human IL-22 [6]) was 0.005 µg/mL and the EC50 (mouse IL-22) was 0.06 µg/mL.
